Measurements published in PMC2329594, “A Minimal Fragment of MUC1 Mediates Growth of Cancer Cells” (PLoS ONE, 2008).

B1: MUC1_(SAD (self-aggregation domain)) peptide (peptide, UniProt P15941 1084-1109, looked up)
peptide: GGFLGLSNIKFRPGSVVVQLTLAFRE
notes: MUC1, human; also called N-1084-1109-C; source: synthetic peptide
B2: MUC1_(ecd-EXT) peptide (peptide, UniProt P15941 1101-1148, looked up)
peptide: VQLTLAFREGTINVHDVETQFNQYKTEAASRYNLTISDVSVSDVPFPF
notes: MUC1, human; also called shifted frame peptide; N-1101-1148-C; source: synthetic peptide

Molecular target: the molecule itself
Assay: gold nanoparticle aggregation (colour change); histidine-tagged peptides (100 uM in PBS) on NTA-Ni gold nanoparticles, alone or mixed; colour change after 15 minutes

Protein	binding result
B1	binds
B2	binds
